Reference: patent US20020132977A1 (Harvard, published 2002)

Biological target: T1, GFP-tagged p73 (human, UniProt O15350 1-636)
T1 construct: also called GFP-p73; not shown: GFP (pEGFP vector)
T1 sequence: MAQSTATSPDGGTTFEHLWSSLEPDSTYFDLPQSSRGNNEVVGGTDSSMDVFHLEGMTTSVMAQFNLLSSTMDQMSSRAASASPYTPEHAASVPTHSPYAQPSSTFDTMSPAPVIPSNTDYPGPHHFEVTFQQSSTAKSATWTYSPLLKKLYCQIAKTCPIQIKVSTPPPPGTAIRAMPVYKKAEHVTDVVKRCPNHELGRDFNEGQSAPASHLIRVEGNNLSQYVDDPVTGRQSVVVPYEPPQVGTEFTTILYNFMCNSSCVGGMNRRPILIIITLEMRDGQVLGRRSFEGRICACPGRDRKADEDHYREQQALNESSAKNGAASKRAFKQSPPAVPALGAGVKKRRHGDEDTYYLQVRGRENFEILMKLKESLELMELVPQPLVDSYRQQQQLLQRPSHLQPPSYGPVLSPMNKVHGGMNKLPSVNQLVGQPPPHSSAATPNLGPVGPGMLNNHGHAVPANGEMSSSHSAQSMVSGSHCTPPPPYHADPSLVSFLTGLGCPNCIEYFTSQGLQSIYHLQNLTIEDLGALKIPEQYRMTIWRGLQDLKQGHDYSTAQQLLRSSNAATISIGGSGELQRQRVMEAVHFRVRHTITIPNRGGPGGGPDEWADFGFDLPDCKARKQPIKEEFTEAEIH
Assay: anti-Flag IP, anti-GFP Western

binding result: no binding
B1: p73β (p53aa319-364) (other)
chain: MAQSTATSPDGGTTFEHLWSSLEPDSTYFDLPQSSRGNNEVVGGTDSSMDVFHLEGMTTSVMAQFNLLSSTMDQMSSRAASASPYTPEHAASVPTHSPYAQPSSTFDTMSPAPVIPSNTDYPGPHHFEVTFQQSSTAKSATWTYSPLLKKLYCQIAKTCPIQIKVSTPPPPGTAIRAMPVYKKAEHVTDVVKRCPNHELGRDFNEGQSAPASHLIRVEGNNLSQYVDDPVTGRQSVVVPYEPPQVGTEFTTILYNFMCNSSCVGGMNRRPILIIITLEMRDGQVLGRRSFEGRICACPGRDRKADEDHYREQQALNESSAKNGAASKRAFKQSPPAVPALGAGVKKKPLDGEYFTLQIRGRERFEMFRELNEALELKDAQAGKEPGGSRAQQQQLLQRPSHLQPPSYGPVLSPMNKVHGGMNKLPSVNQLVGQPPPHSSAATPNLGPVGPGMLNNHGHAVPANGEMSSSHSAQSMVSGSHCTPPPPYHADPSLVRTWGP
notes: range 1-344;range 391-C-terminus; also called p73 chimera with OD of p53; Flag-tagged p53-p73 chimera with switched OD; not shown: Flag tag
